How the values were obtained:
Details in all cases: remark: other sources report otherwise
[1] = target: T1, HLA-A*0201 molecule expressed on the human tumoral cell T2 (human); test: T2 cell HLA-A2 FACS (BB7.2-PE); ratio of 20% concentrations against HIV pol 589-597
[2] = target: T1, HLA-A*0201 molecule expressed on the …; test: T2 cell HLA-A2 FACS (BB7.2-PE), peptide 10 µM
[3] = target: T1, HLA-A*0201 molecule expressed on the …; test: T2 cell HLA-A2 FACS (BB7.2-PE), peptide titration
[4] = target: T1, HLA-A*0201 molecule expressed on the …; test: T2 cell HLA-A2 FACS (BB7.2-PE), peptide 0.1 µM
[5] = target: T1, HLA-A*0201 molecule expressed on the …; test: T2 cell HLA-A2 FACS (BB7.2-PE), peptide 1 µM
[6] = target: T1, HLA-A*0201 molecule expressed on the …; test: T2 cell HLA-A2 FACS (BB7.2-PE), peptide 100 µM

Binder	Relative affinity [1]	HLA-A2 labelling as % of reference peptide HIV pol 589-597 at 100 µM [2] [%]	Conc. inducing 20% of HLA-A2 expression [3] [µM]	HLA-A2 labelling as % of reference peptide HIV pol 589-597 at 100 µM [4] [%]	HLA-A2 labelling as % of reference peptide HIV pol 589-597 at 100 µM [5] [%]	HLA-A2 labelling as % of reference peptide HIV pol 589-597 at 100 µM [6] [%]
VLLGVVFGV [antigenic peptide ERBB2-3B2 (…)]	0.19	57	6.9	-14.6	1.51	336
VVLGVVFGI [reference human peptide derived from ERBB2, ERBB2-3H (…)]	0.45	11.9	16.3	-12.6	-24	196

Source: US20230201322A1
